As usually defined, the Kd is the free concentration of one partner at which half of the binding sites on the other are occupied at equilibrium, for simple one-to-one binding. The term koff denotes the rate constant with which the complex falls apart. A higher koff goes with fast dissociation. For orientation: kon means the rate constant with which the complex forms.

Data on five molecules can be found in US20250270296A1 (ACADEMIA SINICA, published 2025).

Test [1] addresses SARS-CoV-2 S protein, full length, wild type (on pseudovirus, authentic virus hCoV-19/Taiwan/4/2020 (SARS-CoV-2, UniProt P0DTC2 14-1273)). Description: cell-based or functional assay.
Test [2] has as its target SARS-COV-2 RBD-His protein (SARS-CoV-2, UniProt P0DTC2 319-541).

B1: RBD-chAb-28 (antibody, V domains shown)
VH: QVQLQQPGTELVMPGASVKMSCKASGYTFTDYYLHWMKQRPGQGLEWIGAIDSSDSYTDYNQNFKGKATLTVDESSSTAYMHLSSLTSEDSAVYYCARGKDAYDRRPWFAYWGQGTLVTVSA
VL: DIQMTQTTSSLSASLGDRVTISCSASQGIRYYLNWYQQKPDGTVKLLIYYTSNLHSGVPSRFSGSGSGTDYSLTISNLEPEDIATYYCQQYNKLPYTFGGGTKLDIK
Take B1: the “pseudovirus neutralization assay IC50” value in test [1] was found to be 8.75 ng/mL.

B2: RBD-chAb-1 (antibody, V domains shown)
VH: EVQLQQSGPQLVRPGASMKISCKASGYSFTTYWMHWVKQRPGQGLQWIGMIDPSDSETRLNQKFKDKATLTVDKSSSTAYMQLSSPTSEDSAVYYCARDFDYDRTMDYWGQGTSVTVSS
VL: DIVMSQSPSSLAVSVGEKVTMSCKSSQSLLFSSSQKNYLAWYQQKAGQSPKLLIFWASTRESGVPDRFTGSGSGTDFTLTISSVKAEDLAIYYCKQYYKYPLTFGAGTKLDIK
As for B2, in test [1], the PRNT50 was under 36 ng/mL.

B3: RBD-chAb-45 (antibody, V domains shown)
VH: EVQLQQSGPELVKPGASVKISCKTSGYTFTEYTIYWVKQSLGKSLEWIGGNNPNNDDTTYKQFFKGKATLTVDKSSSTAYMELRSLTSEDSAVYYCARDGYPYYYALDFWGQGTSVTVSS
VL: DILMTQSQKFMSTSVGDRVSVTCKSSQNVGTNVAWYQQKPGQSPKALIYSASYRYSGVPDHFTGSGSGTDFTLTISNVQSADLAEYFCQQYNNYPWTFGGGTKLDIK
On to B3, for which, in test [1], the “pseudovirus neutralization assay IC50” value was found to be 2.3 ng/mL. In test [2], this molecule displayed a dissociation constant (Kd) of 0.282 nM, an off-rate (koff) of 0.000282 s⁻¹ and a kon of 997000 M⁻¹ s⁻¹.

B4: RBD-chAb-51 (antibody, V domains shown)
VH: EVQLQQSGPELVKPGASAKISCKTSGYTFTEYTMYWVKQSHGKSLEWIGGINPNNGDTTYNQTFKGKATLTVDKSSSTAYMELRSLTSEDSAVYYCARDGYPFYYALDYWGQGISVTVSS
VL: DIVMTQSQKFMSTSVGDRVSVTCKARQIVGTNVAWYQQKPGQSPKALIYSASYRYSGVPDRFTGSGSGTDFTLTITNVHSEDLAEFFCHQYNSYPWTFGGGTKLDIK
Consider B4, for which, in test [1], the “pseudovirus neutralization assay IC50” value turned out to be 0.98 ng/mL.

B5: RBD-chAb-15 (antibody, V domains shown)
VH: EVQLEESGPGLVQPSQSLSITCTVSDFSLTTYGVHWVRQSPGKGLEWLGVIWSGGSTDYNAAFISRLSISKDNSKSQVFFKMNSLQTNDTAIYYCARMGDGYYVGAMDYWGQGTSVTVSS
VL: DIQLTQSPAILSVSPGERVSFSCRASQSIGTSIHWYQQRTNGSPRHLIKYASESISGIPSRFSGSGSGTDFTLTINGVESEDIADYYCQQGHNWPLTFGAGTKLDIK
B5 had a PRNT50 in test [1] of under 36 ng/mL.
